# Source: PMC8861645
# Molecular target: PggH (phosphoguanylyl guanylate hydrolase), VCA0593 of Vibrio cholerae (Vibrio cholerae El Tor N16961)
# Assay: SEC
substance,measurement,value
"PggH (phosphoguanylyl guanylate hydrolase), VCA0593 of Vibrio cholerae (enzyme)",stoichiometry N,2
